Here are results for two molecules from patent US20220409745, “COMPOSITIONS AND METHODS OF USING ENGINEERED FUSION PROTEINS THAT BIND G4C2 HUMAN REPEATS” (The Regents of the University of California, published 2022).

The target of data set [1] is T1, ZFP106 Znf1 (Z1) (Homo sapiens, UniProt Q9H2Y7 SEQ:1-25). The experiment in a line: EMSA; binds G-q structure. As to conditions: G4.
The target of data set [2] is T1, ZFP106 Znf1 (Z1). The experiment in a line: EMSA; binds non-G-q structure. The following applies: non-G4. In general terms: In EMSA bound probe runs differently from free probe, usually more slowly.

T1 sequence (Q9H2Y7 20-44): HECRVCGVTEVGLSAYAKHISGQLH

Regarding GGGGCCGGGGCCGGGGCCGGGGCCGGGGCCGGGGCCGGGGCCGGGGCC (ssRNA) [(G4C2)8 RNA G-quadruplex], in data set [1], the binding result is reported as “binds”.
Consider GGGGCCGGGGCCGGGGCCGGGGCCGGGGCCGGGGCCGGGGCCGGGGCC (ssRNA) [(G4C2)8 RNA non-G-quadruplex], for which, in data set [2], the binding result is given as “binds”.
